The values below come from article PMC4666372 (Nucleic Acids Research, 2015).

This assay concerns the target T1, His-tagged TopA67 (N-terminal region of TopA, 67 kDa, residues 1-597) (E. coli, UniProt P06612 1-597).
T1 construct: DNA topoisomerase I (TopA) of E. coli, residues 1-597; source: E. coli BL21(DE3), 1 mM IPTG 3 h 37°C, purified (Ni-NTA agarose); not shown: His-tag, N-terminal, kept
T1 sequence (looked up): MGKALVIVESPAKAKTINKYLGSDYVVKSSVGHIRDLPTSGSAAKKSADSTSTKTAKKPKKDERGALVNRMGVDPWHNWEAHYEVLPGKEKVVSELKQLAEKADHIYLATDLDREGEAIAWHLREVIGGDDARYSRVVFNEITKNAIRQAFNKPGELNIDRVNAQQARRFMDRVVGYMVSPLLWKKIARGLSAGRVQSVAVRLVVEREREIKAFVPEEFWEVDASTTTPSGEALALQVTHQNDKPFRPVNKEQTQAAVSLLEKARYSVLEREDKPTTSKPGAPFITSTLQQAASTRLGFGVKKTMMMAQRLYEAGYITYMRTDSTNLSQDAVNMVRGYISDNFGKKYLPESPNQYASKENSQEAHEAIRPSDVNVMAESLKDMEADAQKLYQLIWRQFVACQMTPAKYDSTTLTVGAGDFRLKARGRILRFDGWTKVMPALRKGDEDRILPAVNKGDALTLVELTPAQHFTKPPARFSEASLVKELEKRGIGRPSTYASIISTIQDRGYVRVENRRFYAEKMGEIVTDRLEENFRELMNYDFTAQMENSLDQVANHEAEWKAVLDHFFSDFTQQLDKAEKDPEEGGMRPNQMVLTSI
The assay is described as follows: co-IP; purified PrS-TopAI and TopA, TopA67 or TopA14 at a molar ratio of 1:5 in buffer A (20 mM Tris-HCl pH 8.0, 150 mM NaCl), in the absence of DNA; anti-protein S antiserum, protein G agarose, 4°C; western blot with anti-His antibody. The note with it: both partners purified. In general terms: Immunoblotting shows a protein as a band on a membrane.

B1: PrS-TopAI (N-terminal domain of Protein S fused to TopAI, His-tagged) (natural protein)
chain: not shown
notes: also called PrS-YjhX; YjhX
As to B1, the binding result is reported as “binds”.
